Source: patent publication US20240287172A1 (SCIRHOM, published 2024)
Numbering of substitutions follows the chain as printed.

T1: hiR2-FL-D535-T7 (deletion of D535) (human, UniProt Q6PJF5 1-856)
T1 construct: single amino acid deletion
T1 sequence: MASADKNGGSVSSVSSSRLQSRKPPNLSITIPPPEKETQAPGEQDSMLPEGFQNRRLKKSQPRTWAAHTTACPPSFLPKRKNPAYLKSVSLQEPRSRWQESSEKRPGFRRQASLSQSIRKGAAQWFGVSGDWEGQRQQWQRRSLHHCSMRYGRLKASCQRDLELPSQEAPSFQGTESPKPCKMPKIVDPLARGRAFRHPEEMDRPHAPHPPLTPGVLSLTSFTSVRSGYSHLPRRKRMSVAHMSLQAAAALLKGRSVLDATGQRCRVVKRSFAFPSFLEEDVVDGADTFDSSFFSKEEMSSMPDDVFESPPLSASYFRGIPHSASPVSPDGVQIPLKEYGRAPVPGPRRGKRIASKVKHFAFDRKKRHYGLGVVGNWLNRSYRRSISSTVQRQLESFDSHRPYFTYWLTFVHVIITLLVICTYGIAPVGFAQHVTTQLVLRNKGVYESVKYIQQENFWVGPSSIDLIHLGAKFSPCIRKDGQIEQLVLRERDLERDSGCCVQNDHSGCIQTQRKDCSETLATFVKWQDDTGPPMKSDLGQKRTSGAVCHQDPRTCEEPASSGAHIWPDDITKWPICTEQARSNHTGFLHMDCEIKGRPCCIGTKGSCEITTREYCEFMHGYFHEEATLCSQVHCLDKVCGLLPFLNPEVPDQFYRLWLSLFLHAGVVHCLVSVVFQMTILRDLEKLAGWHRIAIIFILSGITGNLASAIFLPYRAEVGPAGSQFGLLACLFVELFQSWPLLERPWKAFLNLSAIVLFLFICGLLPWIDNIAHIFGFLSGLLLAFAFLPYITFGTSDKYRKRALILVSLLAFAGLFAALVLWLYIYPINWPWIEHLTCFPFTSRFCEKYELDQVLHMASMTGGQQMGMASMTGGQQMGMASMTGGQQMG

B1: antibody 34 (antibody, V domains shown)
VH: QVTLKESGPGILQPSQTLSLTCSFSGFSLSTFSLGVGWIRQSSGKGLEWLAHIWWDDEKYYNPALKSRLTISKDTSKNQVFLKIANVDAADTATYYCARAYYSKSYYALDYWGQGTSVTVSS
VL: DIQMTQSPSSLSASLGERVSLTCRASQEISGYLSWLQQKPDGTIKRLIYAASTLDSGVPKRFSGSRSGSDYSLAISSLESEDFADYYCLQYANFPFTFGSGTKLEIK
notes: mouse IgG, kappa light chain; also called clone #34; purified antibody 34
B2: antibody 16 (antibody, V domains shown)
VH: QVTLKESGPGILQPSQTLSLTCSFSGFSLSTFALGVGWIRQPSGRGLEWLAHIWWDDDKYYNPALKSRLTISKDTSKNHVFLKIANVDTADTATYYCARITTYYYGMDYWGQGTSVTVSS
VL: DIVLSQSPATLSVTPGDSVSLFCRASQSIGNHLHWYQQESHASPRLLIKYASQSISGIPSRFSGSGSGTDFTLSINSVETEDFGMYFCQQSYNWPLTFGAGTKLELK
notes: mouse IgG, kappa light chain; also called clone #16; purified antibody 16
B3: antibody 3 (antibody, V domains shown)
VH: QVTLKESGPGILQPSQTLSLTCSFSGFSLTTFAMGIGWVRQPSGKGLEWLAHIWWDGEKYNNPVLKSRLTISKDTSKNQVFLRIANVDTPDTATYYCARISSIYYIIDNWGQGTSVTVSS
VL: B2 VL with S5T, D17H, F22S, G30S, H32N, Q38K, E39K, A42E, A51V
notes: mouse IgG, kappa light chain; also called clone #3; purified antibody 3
B4: antibody 5 (antibody, V domains shown)
VH: QVTLKESGPGILQPSQTLSLTCSFSGFSLSTFGMGVGWIRQPSGKGLEWLAHIWWDDEKYYNSALKSRLTISKATSKNQAFLKIANVDTADTATYYCARISNYGSNYWYFNVWGTGTTVTVSS
VL: QVVLTQSPALMSASPGEKVTMTCSAGSSVSCMYWYQQKPGSSPRVLIYDTSNLASGVPARFTGSGSGTSYSLTISRMEAEDAASYYCQQWNSYPLTFGAGTKLELK
notes: mouse IgG, kappa light chain; also called clone #5; purified antibody 5
B5: antibody 43 (antibody, V domains shown)
VH: B4 VH with T3A, P42S, H52N, E58D, S63P, A74D, T75A, S101G, N111D
VL: QIVLTQSPAIMSASPGERVTMTCSANSRISYMYWYQQKPGSSPRLLIYDTSNLASGVPVRFSGSGSGTSYSLTISRMEAEDAATYNCQQWSSYPLTFGAGTKLELK
notes: mouse IgG, kappa light chain; also called clone #43; purified antibody 43
B6: antibody 44 (antibody, V domains shown)
VH: B4 VH with G44E, E58D, S63P, A74D, A80I, A85T, D91E, A98S, S101G, N111D
VL: QIVLTQSPAVMSASPGEKVTMTCTASSSVYYMYWYQQTPGSSPRLLIYDTSNLASGVPVRFSGSGSGTSYSLTISRMEAEDAATYYCQQWNTYPLTFGAGTKLELK
notes: mouse IgG, kappa light chain; also called clone #44; purified antibody 44
B7: antibody 42 (antibody, V domains shown)
VH: B4 VH with F24L, M34R, S63P, A74D, A80V, K83R, S101Q, N111D
VL: B5 VL with Q1L, R18K, S24G, N26T, Y33F, L45V, M77V, A82V, N86Y, S91N
notes: mouse IgG, kappa light chain; also called clone #42; purified antibody 42
B8: antibody 22 (antibody, V domains shown)
VH: B4 VH with A80V
VL: B4 VL with C31Y, S84T
notes: mouse IgG, kappa light chain; also called clone #22; purified antibody 22

The binders below were run against T1, hiR2-FL-D535-T7 (deletion of D535) (assay: FACS, MEF-DKO cells, 3 µg/ml).

**Q.** With B1 as the binder, how does the “loss of binding vs wild type” value read?
**A.** ≥ 95%

**Q.** Which “loss of binding vs wild type” value does the source give for B2 here?
**A.** ≥ 95%

**Q.** B3 was tested. Which “loss of binding vs wild type” value did it give?
**A.** ≥ 95%

**Q.** How did the “loss of binding vs wild type” value turn out when B4 was run?
**A.** ≥ 95%

**Q.** How did the “loss of binding vs wild type” value turn out when B5 was run?
**A.** ≥ 95%

**Q.** How did the “loss of binding vs wild type” value turn out when B6 was run?
**A.** ≥ 95%

**Q.** Which “loss of binding vs wild type” value does the source give for B7 here?
**A.** ≥ 95%

**Q.** For B8, which “loss of binding vs wild type” value is on record?
**A.** ≥ 95%
